Consider four molecules from patent US20240084003A1 (SIMCERE ZAIMING PHARMACEUTICAL, published 2024).

In assay [1] the target is T1, CD22 on cynomolgus monkey peripheral blood B cells (cynomolgus monkey (Macaca fascicularis)).
T1 construct: whole, on cells; also called cynomolgus monkey B cells
Description: FACS, cynomolgus PBMC, CD20+ B cells, antibody 100 nM. A digest of the protocol:
(§1)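 Readout: % chimeric-antibody-positive cells among CD20+ gated B cells, FACS. Cyno PBMC (Ficoll) in PBS/1% BSA; test Ab plus BV605 anti-CD20, 1 h RT; APC anti-hIgG Fc secondary, 30 min RT dark; washes between steps.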

The target of assay [2] is T2, monkey CD22 protein (ACROBiosystems, catalog number SI2-R52Ha) (monkey, UniProt F6W485 20-688).
T2 construct: commercial protein; also called monkey CD22-ECD; monkey CD22-ECD-His
T2 sequence: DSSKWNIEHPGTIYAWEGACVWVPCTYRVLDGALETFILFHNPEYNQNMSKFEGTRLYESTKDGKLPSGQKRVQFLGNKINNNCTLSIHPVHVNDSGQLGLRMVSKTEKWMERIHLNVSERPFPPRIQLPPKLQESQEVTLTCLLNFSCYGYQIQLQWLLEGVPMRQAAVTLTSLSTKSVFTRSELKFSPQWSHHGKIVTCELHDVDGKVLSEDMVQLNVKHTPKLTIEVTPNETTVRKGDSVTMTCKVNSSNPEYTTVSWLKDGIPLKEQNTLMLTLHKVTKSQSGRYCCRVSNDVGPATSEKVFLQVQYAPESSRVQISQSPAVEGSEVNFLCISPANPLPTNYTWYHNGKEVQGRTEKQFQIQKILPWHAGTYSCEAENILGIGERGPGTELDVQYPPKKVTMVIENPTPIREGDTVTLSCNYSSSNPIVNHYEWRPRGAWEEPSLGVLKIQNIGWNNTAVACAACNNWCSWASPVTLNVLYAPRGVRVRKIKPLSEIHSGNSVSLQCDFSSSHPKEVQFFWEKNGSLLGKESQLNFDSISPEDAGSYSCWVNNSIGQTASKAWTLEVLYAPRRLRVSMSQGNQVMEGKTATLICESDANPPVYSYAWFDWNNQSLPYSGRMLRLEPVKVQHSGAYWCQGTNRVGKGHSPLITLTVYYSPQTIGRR
As to the kind of experiment: ELISA, coated monkey CD22 protein, antibody 0.01 nM. A digest of the protocol: (§2)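 Read-out is TMB absorbance after a 30 min room-temperature development stopped with 1.0 N HCl. It reflects chimeric antibody bound to plate-coated CD22 (2 μg/mL), detected with an HRP-labelled secondary antibody. Antibody and secondary incubations each ran 2 h at 37° C.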

Assay [3] addresses T2, monkey CD22 protein (ACROBiosystems, …). As to the kind of experiment: ELISA, coated monkey CD22 protein, antibody 0.00001 nM. A digest of the protocol:
as §2

The target of assay [4] is T1, CD22 on cynomolgus monkey peripheral …. Description: FACS, cynomolgus PBMC, CD20+ B cells, antibody 1 nM. In outline:
as §1
(In general: Flow cytometry measures light scatter and fluorescence of single cells or particles in a stream.)

For assay [5], the target named is T2, monkey CD22 protein (ACROBiosystems, …). As to the kind of experiment: ELISA, coated monkey CD22 protein, antibody 0.001 nM. In outline:
as §2
On the technique in general: An ELISA detects its analyte on a solid surface through an enzyme-linked reagent.

The target is the same in assay [6]. Description: ELISA, coated monkey CD22 protein, antibody 0.1 nM. In outline:
as §2

Assay [7] shares this target. Description: ELISA, coated monkey CD22 protein, antibody 10 nM. A digest of the protocol:
as §2

Assay [8] deals with T1, CD22 on cynomolgus monkey peripheral …. Description: FACS, cynomolgus PBMC, CD20+ B cells, antibody 10 nM. A digest of the protocol: as §1
In assay [9] the target is T2, monkey CD22 protein (ACROBiosystems, …). Description: ELISA, coated monkey CD22 protein, antibody 100 nM. In outline: as §2
Assay [10] has the same target. As to the kind of experiment: ELISA, coated monkey CD22 protein, antibody 0.0001 nM. A digest of the protocol: as §2

B1: F2.205.9 (antibody, human IgG1, lambda, V domains shown)
VH: QVTLKESGPGILQPSQTLSLTCSFSGFSLSTSGMGVGWIRQPSGKGLEWLAHIWWDDDEYYNPALKSRLTISKDTSKNQVFLKIANVDTADTATYYCARISIPYGYYDWFFDVWGTGTTVTVSA
VL: QAVVTQESALTTSPGETVTLTCRSSTGAVTTRNYANWVQEKPDHLFTGLIGGTNNRAPGVPARFSGSLIGDKAALTITGAQTEDEAIYFCALWYSNHFIFGSGTKVTVLG
notes: human-murine chimeric IgG1 lambda; VL name legible
For B1, the results for the “Proportion of chimeric antibody positive cells to B cells (%)” value (from here on “Proportion … (%)”) in assay [1], in assay [4] and in assay [8] were 46%, 40% and 41%, respectively. Besides, the OD450 turned out to be 1.78 OD450 in assay [2]; 0.08 OD450 in [3]; 0.63 OD450 in assay [5]; 2.21 OD450 in [6]; 2.28 OD450 in assay [7]; 2.33 OD450 in assay [9]. For the same molecule, the OD450 in assay [10] is 0.16 OD450.

B2: F2.151.13 (antibody, human IgG1, lambda, V domains shown)
VH: QVHLQQPGTELMKPGASVKLSCKATGYTFRDYWLEWVKQRPGHGLEWIGEILPGSGNAYYNEKFKGKATFTADTSSNTAYMQLSSLTTEDSAIYYCARVYSNWYFDAWGKGTTVTVSS
VL: QAVVTQESALTTSPGETVTLTCRSSTGAVTTSNYANWVQEKPDHLFTGLIGGTNNQAPGVPARFSGSLIGDKAALTISGAQTEDEAIYFCALWFSNHWVFGGGTKLTVLG
notes: human-murine chimeric IgG1 lambda
With B2, the “Proportion … (%)” value was 60% in assay [1], 38% in assay [4] and 48% in assay [8]. For the same molecule, the OD450 in [2] was 0.94 OD450; in [3], 0.07 OD450; in [5] it was 0.27 OD450; in assay [6] it was 1.6 OD450; in assay [7] it was 1.89 OD450; in assay [9], 2.77 OD450. In assay [10], the OD450 is 0.1 OD450.

B3: HA22-hIgG1 (antibody, V domains shown)
VH: EVQLVESGGGLVKPGGSLKLSCAASGFAFSIYDMSWVRQTPEKCLEWVAYISSGGGTTYYPDTVKGRFTISRDNAKNTLYLQMSSLKSEDTAMYYCARHSGYGTHWGVLFAYWGQGTLVTVSA
VL: DIQMTQTTSSLSASLGDRVTISCRASQDISNYLNWYQQKPDGTVKLLIYYTSILHSGVPSRFSGSGSGTDYSLTISNLEQEDFATYFCQQGNTLPWTFGCGTKLEIKR
Consider B3, for which the figures for the “Proportion … (%)” value in [1], in [4] and in [8] were 93%, 33% and 89%, respectively. Further, the OD450 in [2] is 1.54 OD450; in assay [3], 0.08 OD450; in [5] it was 0.47 OD450; in assay [6] it was 2.24 OD450; in assay [7], 2.41 OD450; in assay [9] it was 2.2 OD450. The OD450 in [10] worked out at 0.14 OD450.

B4: F2.55.1 (antibody, human IgG1, lambda, V domains shown)
VH: QVTLKESGPGILQPSQTLSLTCSFSGFSLSTFPLGVGWIRQPSGKGLEWLAHVWWNDDDYYNPALKSRLTISKDTSNTRVFLSVASVDTAETATYYCARLNWDRWYFDVWGTGTTVTVSS
VL: QLVLTQSSSASFSLGASAKLTCTLSSQHSAYTVEWYQQQPLKPPKYVMELKKDGSHSTGDGIPDRFSGSSSGADRYLSISNIQPEDEAIYICGVGDTVKEQFVFGGGTKVTVLG
notes: as for B1
As to B4, the “Proportion … (%)” value in assay [1] is 66%; in assay [4], 22%; in [8] it was 28%. Moreover, the OD450 in [2] is 0.85 OD450; in [3] it was 0.06 OD450; in assay [5], 0.18 OD450; in assay [6], 1.73 OD450; in assay [7], 2 OD450; in assay [9], 1.91 OD450. In addition, the OD450 in [10] turned out to be 0.07 OD450.
